These are literature values, as cited in article PMC3376167.

This series has as its target ARNT PAS-B (Homo sapiens) (UniProt P27540).

Chain of ARNT PAS-B (Homo sapiens) (P27540 356-470): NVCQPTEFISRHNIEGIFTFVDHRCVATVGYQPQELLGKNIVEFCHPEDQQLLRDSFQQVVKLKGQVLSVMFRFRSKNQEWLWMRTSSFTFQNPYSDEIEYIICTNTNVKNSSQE
Chain of HIF-2α PAS-B (Q99814 239-350): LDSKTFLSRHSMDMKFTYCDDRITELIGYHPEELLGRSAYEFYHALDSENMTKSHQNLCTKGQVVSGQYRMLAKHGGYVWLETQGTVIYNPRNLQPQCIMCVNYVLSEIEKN

Consider HIF-2α PAS-B (from UniProt Q99814), for which the Kd was 120 µM.
